Source: a protein production outcome set (Wang et al. 2014)

Assay: label from the status in PepcDB records

Sequence	protein production
MDPSAPALDSAFWITTGAILLLLILSGFFSGSETALTAASRGKLRSQADKGSKGAQKALAITDDNERLIGSVLLGNNLVNILAASLATALFTRAFGESGVALATLVMTLLVLIFAEVLPKTYAITNSEKAAAAVAPIIGVVVMVFSPVVALVRLLVRGVLRLFGVRIDPDSHIMAVREEIAGALYLGHSEGVVEKEDRDRILGALDLAERTVEEIMLHRSNIVMLDADAEPETILEHCLQSPHTRLPVYRGEPENIIGVVHAKDLFRAMYAQVGGSEGHTARLKDFDISRVANAPYFVPETTTLDDQMRAFLRMRSHFALVVDEYGSLRGLITLEDILEEIVGEITDEFDPAAEMPVTRSDDGQFLVDGAMTIRDVNRAMDWSLPDDEANTVAGLVIHEAQMIPTVGQVFAFHGFRFEVTGREGNRITGLKIRPL	failed
AQAEVRIDGPIEYGVFESRYQDFQPGERVLTRSEQNIQQTTEVPAKLGTKFGMRYQLSGKQEGDTPLTLLYLTPGVVTPDGQRHDKFEVVQKLVPGAPTDVMAYEFTEPHEVVKGEWRLMVFQGDRLLAEKSFDVR	not failed
MSLDDIINNMIDKLKLLVHFDRISFLLLANETLKLSHVYPKGSHSLDIGSTIPKEQSLYWSALDQRQTIFRSLTDTQDNFYEKQYLAILDLKSILVIPIYSKNKRVGVLSIGRKQQIDWSLDDLAFLEQLTDHLAVSIENVELYGQVLRSKQEWEDTFKAVD	not failed
MSHHVQREIRYNFEFDHRIRACFIGAGGHAYRNVYPALRYAPVELSGICDLDIGRAEKFAKLFGAGKAYTDHREMLEQEKPELVFLVTAYHPDGRVQATDLALDALASGAHVWMEKPTAASLEDIERLQAASAAAGRMVMTGLKKTFFPTIEKLRDLIGSPGFGRLTSINVRYPQSLPGQEDRADLVKMQSFLDHIYHPGAILHFLGGEIERAGYEWEALTGATITSLRFHSGAIGTLHLAAGQSGSSIFERVEIIGEGANAIVENGSRLTYFRKADLPSYGRAASFIQPDENAALFYEPEHSLGQLYNNNLFYLGYVPEILHLTDAILSGTPISRGTLEIAREIMKLFEFYRRTDAGVTTNL	failed
MTIAATMLRAITVLMALLLLVAAGPAAAADEGGDLLEQFLGRKYEPVLKPLEIPEGTPPSEALFLYLNQGYGDAGVIGDFLAKGADANYADKEYRITLLHNVAHYGHAEATRILLAAGARVNAVNGEGNTPLFAAVHEGHDDVARILLDAGADVTIANSYWYTPLREACRRGNTGMVRLLLEKGADVNITDNKGFTPLHAAVSAEALEAATLILDSGADINIAGRYGDTPLHYAVGLGYEEFVRLFLARGADPTIRNDRGLTPRQLAEERGFASIVELFRNWGKNTI	failed
ERIRYESQIKRFNRIMDTTMENIPAGIVVKDIENDFRYIYRNRESYNRDISSENAIGMNDFDYYPPEMAQQKRKEDMEIAATGKGMHWIMEGKDKNGNLLILDKQKIMVESEDFSPIIVSIEWDIT	failed
MLRCSHSKGVNYINFSATGKLLVSVGVDPEHTITVWRWQEGTKVASRGGHLERIFVVEFRPDSDTQFVSVGVKHMKFWTLAGSALLYKKGVIGSMEAARMQTMLSVAFGANNLTFTGAINGDVYVWKEHFLIRLVAKAHTGPVFTMYTTLRDGLIVTGGKERPTKEGGAVKLWDQEMKRCRAFQLETGQLVECVRSVCRGKGKILVGTKDGEIIEVGEKSAASNILIDGHMEGEIWGLATHPSKDMFISASNDGTARIWDLADKKLLNKVNLGHAARCAAYSPDGEMVAIGMKNGEFIILLVNSLKVWGKKRDRKSAIQDIRISPDNRFLAVGSSEHTVDFYDLTQGTSLNRIGYCKDIPSFVIQMDFSADSKYIQVSTGAYKRQVHEVPLGKQVTEAMVIEKITWASWTSVLGDEVIGIWPRNADKADVNCACVTHDGLNIVTGDDFGLVKLFDFPCTEKFAKHKRYFGHSAHVTNIRFSYDDKYVVSTGGDDCSVFVWRCL	failed
PLGLAPTASTTATLAMGDALAVALLIERGFRPEDFALFHPGGSLGKKLLLTVGDLMHSGDAVPLVGSATPIRDALFVITAKGLGITGVCAEDGALVGVVTDGDLRRSLGKGVDILNQPAGEIMTRNPKRINRSELAAKALQVMESHSITSLFVFDDTADNRPVGVIHLHDLLRA	not failed
MNLVQAFLLSFTAFFAIMNPFANLPMFVSLTADNNRKEVDAIARLAFIVATVIVALFALLGNYIFSIFGINLSALRIMGGIILGLIGYHMIQGNVSPIQHDPKQSVKDSINSNNTDVAISPLAMPVLAGPGTIATTMNLSSSTNPFIVISAFVVLSVITYFIFIYGEQIMAKLGNNIMNVITKLMGLILATIGVRMLIMGVQVAFHW	failed
MTRACNLYVFKNKYVSFNLLDSPNSNPKLLKISLPFNFMDEFEGLLKAVGSAPWYKLIGMVPKLQGDRVVVEMEIDRSKHLQALGTTHGGAIASVLDSAIGLNVNREVVKMGKTAVTAQLNIHYIRPVTEGKIVGVGMPMHIGSKVTVGYGEVRNEEGELVAAGTATFYIIDRRFRDLEHHHHHH	failed
MAANSNSRVASNHTSKKQKVRRNIHPFTNNTRIKRASKIVKFNDSGEGDHVSDQRSNKENVLTYKSLKSRASDLLKMRETLPVYQHKREIMSYIESNPVTVLIGETGSGKSTQIPQFVLEKLYDTKKHGSIAVTQPRRVAAINLATRVAQEHGCKLGEQVGYSVRFDNTTTTRTRLKYLTDGMLLRELMMNSDLREYSVIVIDEAHERTVLTDLILGFLKSLIQGPRPDLRIIVMSATLQAEKFSEFFNNAPILFVEGRKFDVKQYYLKAPTDDIVDAVIRCCIQINQGEELGDILCFLPGQEEIDKAVTIMEKIAKYVSDEAPVPLIVPYPLYAALPAVQQSLVFAPIKGFKRKVVFSTNIAETSVTISGVKFVVDSGLRKVKVWRHQLGLATLLTVPISQASAMQRSGRAGRESEGKSFRLYCESDYVKLPKQSEPEIARSDVTSPVLMLKRYGVDDLLNWTWFENPGKEAIVMGLQELYELGALDTRGKITKRGQQMALLPLQPHLSSVLIKASEVGCLSQVIDIVSCLSVENLLLNPSPEERDEVNERRLSLCNAGKRYGDLIMLKELFDIYFYELGKSQDASSERNDWCKGLCISIRGFKNVIRVRDQLRVYCKRLFSSISEEDEESKKIGEDGELISKILKCFLTGFIKNTAIGMPDRSYRTVSTGEPISIHPSSMLFMNKSCPGIMYTEYVFTTKGYARNVSRIELSWLQEVVTNAAAVAKQKVSDSK	failed
